# According to patent publication US20230279105A1 (SINGLE CELL TECHNOLOGY, published 2023):
# Changes are numbered by the printed parent chain.
# B1: SCT-Fa179 (antibody, V domains shown)
# VH: QVQLQQSGAELVRPGTSVKVSCKASGYAFSNYLIEWVKQRPGQGLEWIGVINPGNGGTTYNEKFKDKATLTADRSSTTAYMQLSSLTSEDSAVFFCARTAYGSPLDYWGQGTTLTVSS
# VL: DIKMTQSPSSMYASRGERVTITCKASQDINRYLSWLQQKPGKSPKTLIYRANRLVDGVPSRFSGSGSGQDYSLTISSLEYEDMGIYYCLQYDEFPYTFGGGTKLEIK
# notes: murine IgG
# B2: SCT-Fa182 (antibody, V domains shown)
# VH: B1 VH with S30T, N52S, N55S, G57A, D66G, F94Y, T99S, Y107F
# VL: B1 VL with R15L, L36F, A51V, S60L, E79D, L89Q
# notes: murine IgG
# B3: SCT-Fa184 (antibody, V domains shown)
# VH: QVQLQQSGAELVRPGTSVKVSCKASGYAFTNYLIEWVKQRPGQGLEWIGVISPGSGGTTYNEKFKGKATLTADKSSSTAYMQFSSLTSEDSAVYFCARSAYGHVFDYWGQGTTLTVSS
# VL: B1 VL with M11I, R15L, R31S, S34K, L36F
# notes: murine IgG
# B4: SCT-Fa185 (antibody, V domains shown)
# VH: B3 VH with K19R, K23T
# VL: B1 VL with R15L, R31S, S34K, L36F
# notes: murine IgG
# B5: SCT-Fa180 (antibody, V domains shown)
# VH: B1 VH with S30T, V37A, N55S, G57A, D66G, K67R, R74M, Y107C
# VL: B1 VL with R15L, P40A, A51E, D56E
# notes: murine IgG
# B6: SCT-Fa170 (antibody, V domains shown)
# VH: QVQLQQSGAELARPGASVKLSCKASGYTFRSYGLSWVKQRTGQGLEWIGEIYPRSGNTYYNEKFKDRVTLTADKSSSAAYMELRSLTSEDSAVYFCARSTAVVAGGFDYWGQGTALTVSS
# VL: DIVMTQSPSSLTVTAGEKVTMSCKSSQSLFNSRTQKNSLTWYQQKPGQPPKLLIFWASTRESGVPDRFTGSASGTDFTLTLSGVQAEDLAIYYCQNDYTYPWTFGGGTKLEIK
# notes: murine IgG
# B7: SCT-Fa186 (antibody, V domains shown)
# VH: QVQLQQSGPELARPGASVKLSCKASGYTFRSNGISWVKQRTGQGLEWIGEIYPRSGNIYYNEKVKDKATLTADKSSNTAYMAVRSLTSEDSAVYFCARSTTVVAGGFDFWGQGTVLTVSS
# VL: B6 VL with F30L, F55Y, A72G, L81I, G83S, K109E
# notes: murine IgG
# B8: SCT-Fa171 (antibody, V domains shown)
# VH: B6 VH with R30T, S31N, L34I, T58S, D66G, R67K, V68A, A78T, V102I, A115T
# VL: B6 VL with F30L, T34I, F55Y, G70A, A72G, L81I, G83S, I91V
# notes: murine IgG
# B9: SCT-Fa193 (antibody, V domains shown)
# VH: B6 VH with Q5R, R30T, L34I, S35T, T58I, D66G, R67K, A78T, A115T
# VL: DVVMTQSPSSLTVTTGERVTVNCKSSQSLLNSRIQKNSLTWYQQKPGQPPKLLIYWASTRESGVPDRFTGSGSGTDFTLTISSVQAEDLAIYYCQNDYNYPWTFGGGTKLEIK
# notes: murine IgG
# B10: SCT-Fa192 (antibody, V domains shown)
# VH: B6 VH with Q5R, R30T, S31N, L34I, S35T, T58I, D66G, R67K, A78T, A115T
# VL: B9 VL with V2I, R18K, Y55F, G72E
# notes: murine IgG
# B11: SCT-Fa163 (antibody, V domains shown)
# VH: QVQLQQPGTELVKPGASVKVSCKASGYTFISYWMHWVKQRPGQGLEWIGNIDPNYGGSNYNEKFKSKATLTVDKSSSTAYMQLSSLTSEDSAVYYCARWGWDGFAYWGQGTLVTVSA
# VL: DIQMTQSPSSLSASLGERVSLTCRASQDIGSSLNWLQQEPDGTIKRLIYATSSLDSGVPKRFSGSRSGSDYSLTISSLESEDFVDYYCLQYASSPFTFGSGTKLEIK
# notes: murine IgG
# B12: SCT-Fa172 (antibody, V domains shown)
# VH: QVQLQQSGAELARPGASVKLSCKASGYTFTSYGISWVKQRTGQGLEWIGEIYPRSGNTYYNEKFKGKATLTADKSSSTAYMELRSLTSEDSAVYFCARSTYGSSSYAMDYWGQGTSVTVSS
# VL: DVLMTQTPLSLPVSLGDQASISCRSSQSIVHSNGNTYLEWYLQKPGQSPKLLIYKVSNRFSGVPDRFSGSGSGTDFTLKISRVEAEDLGVYYCFQGSHVPYTFGGGTKLEIK
# notes: murine IgG
# B13: SCT-Fa177 (antibody, V domains shown)
# VH: QVQLQQSGAELVRPGASVTLSCKASGYTFTDYEMYWVKQTPVHGLEWIGVIDPETGGTAHDQKFKGKAILTADKSSSTAYMELRSLTSEDSAVYYCTRWAFWGQGTLVTVSA
# VL: B12 VL with L3V, I29L, E39H, K79R, E86D, Y92F, F94S, G96S, S97T
# notes: murine IgG
# B14: SCT-Fa007 (antibody, V domains shown)
# VH: EVKLVESEGGLVHPGSSMKLSCTASGFTFSDYYMAWVRQVPEKGLEWIANINFDGSGTYYLDSLKSRFIISRDNGKNILYLQMSGLKSEDTATYYCARLYDGYYAYWGQGTTLTVSS
# VL: B12 VL with L3V, I29L, E39Y, Y92F, F94S, G96S, S97T, Y101L, G105A, I111L
# notes: murine IgG
# B15: SCT-Fa176 (antibody, V domains shown)
# VH: QVQLQQSGAELVRPGASVTLSCKASGYTFTDFEMHWVKQTPVHGLEWIGAIDPETGGTAYNQKFKGKAILTADRSSSTAYMELRSLTSEDSAVYYCTRGIYYGNYGSAMDYWGQGTSVTVSS
# VL: B12 VL with V99A, Y101L, G105A, I111L
# notes: murine IgG
# B16: SCT-Fa008 (antibody, V domains shown)
# VH: B14 VH with H13Q, P14L
# VL: DVVVTQTPLSLPVSLGDQASISCRSSQSLVHSNGNTYLYWYLQKPGQSPKLLIYKVSNRFSGVPDRFSGSGSGTDFTLKISRVEAEDLGVYFCSQSTHVPLTFGAGTKLELK
# notes: murine IgG
# B17: SCT-Fa018 (antibody, V domains shown)
# VH: B14 VH with H13Q, I48V, G57S, T58S, G75T, G85S
# VL: B16 VL with V4M, V30I, K50T, T107S
# notes: murine IgG
# B18: SCT-Fa002 (antibody, V domains shown)
# VH: EFQLQQSGPELVKPGASVKISCKASGYSFTDYNMNWVKQSNGKSLEWIGVNNPKYGTTTYNQKFKGKATLTVDQSSSTAYMQLNSLTSEDSAVYYCARRGYYYGSSYGYFDVWGTGTTVTVSS
# VL: DILMTQSPSSMSVSLGDRVSIICHASQDIRSNIGWLQQKPGKSLKGLIYHGTNLEDGVPSRFSGSGSGADYSLTISSLESEDFADYYCVQYVQFPRTFGGGTKLEIK
# notes: murine IgG
# B19: SCT-Fa169 (antibody, V domains shown)
# VH: QVQLQQPGTELVMPGASVNLSCKASGYTFTSYWMHWVKQRPGQGLEWIGEIDPSDSYANYNQNFKGKATLTVDKSSITAYMQLSSLTSEDSAVYYCARNYGSNYVGYFDYWGQGTTLTVSS
# VL: DIQMTQTTSSLSASLGDRVTISCRASQDISNYLNWYQQKPDGTVKLLIYYTSRLHSGVPSRFSGSGSGTDYSLTISNLDQEDIATYFCQQEKTLPWTFGGGTKLEIK
# notes: murine IgG
# B20: SCT-Fa181 (antibody, V domains shown)
# VH: QVQLQQSGAELVRPGTSVKVSCKASGYAFTNYLIEWVKQRPGQGLEWIGVINPGSGATNYNEKFKGKATLTADKSSSTAYMQLRSLASEDSAVYFCARRTTVVAPYAMDYWGQGTSVTVSS
# VL: B19 VL with K45E, D79E, E91G, K92N, W96R
# notes: murine IgG
# B21: SCT-Fa195 (antibody, V domains shown)
# VH: QVQLRQSGAELVRPGTSVKLSCKASGYTLTDYYINWVKQRPGQGLEWIARIYPGNGNTYYNEKFKGKATLTAEKSSSTVNMQVSSLTSEDSAVYFCARGGSSDRIYYYAMDYWGQGTSVTVSS
# VL: DIQVTQSSPFLSVSLGGRVIISCKASDHINNWLAWYQQKPGNAPRLLISGAINLETGVPSRFSGSGSGKDYTLSISSLQTEDVATYYCQQYWNTPYTFGGGTKLEIK
# notes: murine IgG
# B22: SCT-Fa174 (antibody, V domains shown)
# VH: QVQLQQSGAELVKPGASVKLSCKASGYSITGYYIHWVKQRPGQGLEWIGWIYPGSGSIKYNEKFKGKATLTADTSSSTADMQLSSLTSEDSAVYYCAREAWGNWYFDVWGTGTTVTVSS
# VL: DILLTQSPAILSVSPGERVSFSCRASQSIGTSIHWYQQRTNGSPRLLIKYASESISGIPSRFSGSGSGTDFTLSINSVESEDIADYYCQQSNSWPYTFGGGTKLEIK
# notes: murine IgG
# B23: SCT-Fa183 (antibody, V domains shown)
# VH: B1 VH with S30T, N52S, N55S, G57A, D66G, F94Y, T99S, Y107F
# VL: B22 VL with A9D, S28N, P59S, S93N, Y96F, G100S
# notes: murine IgG
# B24: SCT-Fa173 (antibody, V domains shown)
# VH: B13 VH with V12M, T30P, H60Y, D61N, K65E, G66V, S77N, F101Y
# VL: QIVLTQSPAIMSASLGERVTMTCTASSSVSSSYLHWYQQKPGSSPKLWVYSTSNLASGVPGRFSGSGSGTSYSLTISSMEAEDAATYYCHHYHRSPPTFGGGTKLEIK
# notes: murine IgG
# B25: SCT-Fa175 (antibody, V domains shown)
# VH: QVQLQQSGAELVRPGASVTLSCKASGYTFSDYEMHWVKQTPVHGLEWIGVIDPETGDTAYNQKFKDKAVLTADKSSNTAYMELRSLTSEDSAVFFCTSNGYPEHWGQGTTLTVSS
# VL: B24 VL with S28G, S32T, K40R, V49I, N54T, G61A, H91Q, P97L, G101A, I107L
# notes: murine IgG
# B26: SCT-Fa178 (antibody, V domains shown)
# VH: B13 VH
# VL: B24 VL with H93N
# notes: murine IgG
# Biological target: T1, Human TIM-3 Human Fc tagged protein (human, fluorescently labeled with HiLyte Fluor 555 (sites not given))
# T1 construct: Bought construct; also called TIM-3 protein tagged with human Fc; ACROBiosystems catalog no: TM3-H5258
# Assay: capture slide probed with labeled TIM-3-Fc;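 also: IgG from single CD138-enriched plasma cells, isolated from lymphocytes, immobilized on a derivatized glass slide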
# Text: Antibody secreted from each plasma cell was captured on a derivatized microscope slide.
row,binding result,Binder
1,binds,B1
2,binds,B2
3,binds,B3
4,binds,B4
5,binds,B5
6,binds,B6
7,binds,B7
8,binds,B8
9,binds,B9
10,binds,B10
11,binds,B11
12,binds,B12
13,binds,B13
14,binds,B14
15,binds,B15
16,binds,B16
17,binds,B17
18,binds,B18
19,binds,B19
20,binds,B20
21,binds,B21
22,binds,B22
23,binds,B23
24,binds,B24
25,binds,B25
26,binds,B26
